Results published in patent publication US20090291088A1 (Biogen, published 2009).
Changes are numbered by the printed parent chain.

B1: P1A2.2B11 (antibody, IgG2b, V domains shown)
VH: QIQLVQSGPELKKPGETVKISCKASGYTFTNHGMNWVKQAPGKGLKWMGWNTSTGEPTYADDFKGRFAFSLETSASTAFLQINNLKNEDTASYFCASPLYYMYGRYIDVWGAGTAVTVSS
VL: DIQMTQTTSSLSASLGDRVTISCRASQDISNYLNWYQQKPDGTIKLLIYYTSRLHSGVPSRFSGSGSGTDYSLTISNLEQEDFATYFCQQGKTLPWTFGGGTKLEIK
notes: Murine hybridoma antibody, IgG2b/k
B2: P1G10.2B8 (antibody, IgG1, V domains shown)
VH: QIQLVQSGPDLKKPGETVKISCKASGYTFTNHGMNWVKQAPGKDLKWMGWINTNTGEPTYADDFKGRFAFSLETSASTAYLQINNLKNEDTATYFCASPLYYRNGRYFDVWGAGTTVTVSS
VL: B1 VL with T43S, I44V, F83I
notes: Murine hybridoma antibody, IgG1/k
B3: M14-G11.G4.P (antibody, human IgG4, V domains shown)
VH: EVQLLESGGGLVQPGGSLRLSCAASGFTFSNYPMYWVRQAPGKGLEWVSRISSSGGRTVYADSVKGRFTISRDNSKNTLYLQMNSLRAEDTAVYYCARDRWSRSAAEYGLGGYWGQGTLVTVSS
VL: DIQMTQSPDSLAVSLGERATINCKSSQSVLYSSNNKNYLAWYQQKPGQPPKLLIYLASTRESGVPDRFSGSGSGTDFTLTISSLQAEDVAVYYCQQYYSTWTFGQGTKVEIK
notes: Full-length human IgG4.P, kappa; also called M14.G11.P; G4 version of M14-G11
B4: M14-G11.G4.P.agly (antibody, human IgG4 S228P, kappa, V domains shown)
VH: B3 VH
VL: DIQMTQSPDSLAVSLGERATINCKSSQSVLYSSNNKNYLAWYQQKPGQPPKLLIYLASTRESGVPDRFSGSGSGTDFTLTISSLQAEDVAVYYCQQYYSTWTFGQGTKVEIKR
notes: Full-length human aglycosylated IgG4.P, kappa; Places that say only 'M14-G11 antibody' were assigned to this version; also called M14-G11_Ab; Biotin-G11
B5: M12-G04.G4.P (antibody, human IgG4, V domains shown)
VH: EVQLLESGGGLVQPGGSLRLSCAASGFTFSKYTMHWVRQAPGKGLEWVSSIVSSGGWTDYADSVKGRFTISRDNSKNTLYLQMNSLRAEDTAVYYCARDRSIAAAGTGWSVSFVDWFDPWGQGTLVTVSS
VL: DIQMTQSPLSLSASVGDRVTITCRASQSINGYLNWYQQKPGKAPNLLIYATSSLQSGVPSRFSGSGSGTDFTLTISSLQPEDFATYYCQQSYSTPPYTFGQGTKLEIK
notes: Full-length human IgG4.P, kappa; also called G4 version of M12-G04
B6: M12-G04 Fab (Fab, V domains shown)
VH: B5 VH
VL: B5 VL
notes: Human phage Fab, kappa
B7: P1E2.3B12 (antibody, IgG2b, V domains shown)
VH: QVQLQQPGAELVKPGASVKLSCKASGYTFTSYWMHWVKQRPGQGLEWIGEINPTYGRSNYNEKFKSKATLTVDKSSSTAYMQLSSLTSEDSAVYYCARLVRLRYFDVWGAGTTVTVSS
VL: DIVMTQAAFSNPVTLGTSASISCRSSKSLLHSNGITYLYWYLQKPGQSPQLLIYQMSNLASGVPDRFSSSGSGTDFTLRISRVEAEDVGVYYCAQNLELPYTFGGGTKLEIK
notes: Murine hybridoma antibody, IgG2b/k; also called P1E2 (hybridoma)
B8: P2A7.3E11 (antibody, IgG2a, V domains shown)
VH: QVQLQQSGPELVKPGASVKMSCKASGNTFTDYVINWVKQRTGQGLEWIGEIYPGNENTYYNEKFKGKATLTADKSSNTAYMQLSSLTSEDSAVYFCARGIYYYGSRTRTMDYWGQGTSVTVSS
VL: EVVLTQSPTAMAASPGEKITITCSASSTLSSNYLHWYQQKPGFSPKLLIYRTSNLASGVPGRFSGSGSGTSYSLTIGTMEAEDVATYYCQQGSSIPLTFGAGTKLELK
notes: Murine hybridoma antibody, IgG2a/k; also called muP2A7

Experiments:
[1] = molecular target: T1, human IGF-1R(1-902)-His10 (human, UniProt P08069 31-932); test: protein ELISA
T1 construct: Cy5-labelled in tr-FRET; also called hIGF-1R-His10; IGF-1R-His

[2] = molecular target: T2, human IGF-1R expressed on cells (human, UniProt P08069 31-1367); test: binding to MCF-7 tumor cells
T2 construct: On MCF-7 tumor cells or on 3T3/CHO transfectants; precursor is processed into alpha and beta subunits; Signal peptide 1-30 left out as stated; also called wild type IGF-1R; IGF-1R 3T3

[3] = molecular target: T2, human IGF-1R expressed on cells; test: cell-based or functional assay
[4] = molecular target: T3, murine IGF-1R expressed on cells (mouse, UniProt Q60751 31-1373); test: binding to CHO transfectants
T3 construct: whole, on cells; also called mouse IGF-1R

[5] = molecular target: T4, Rhesus IGF-1R expressed on CHO cells (rhesus monkey, UniProt I2CWY3 31-1367); test: flow cytometry and confocal microscopy, CHO transfectants
T4 construct: whole, on cells; also called Rhesus IGF-1R/CHO

human IGF-1R(1-903)-Fc [6] = molecular target: T5, human IGF-1R(1-903)-Fc (human, UniProt P08069 31-933); test: ELISA, plate coated with soluble IGF-1 receptor Fc fusion protein, detection with anti-human kappa-HRP
T5 construct: Made by Biogen Idec; Multimerises through IGF-1R and Fc; also called hIGF-1R-Fc; IGF-1R-Fc; not shown: C-terminal human IgG1-Fc tag
Description: The plate was washed with phosphate-buffered saline (PBS, Irvine Scientific, Cat#9240), pH 7.4 plus 0.025% Tween 20 in the Skan Washer 300 (Skatron Instruments), blocked with buffer containing 1% nonfat milk, 0.05% Tween 20 in PBS, pH 7.4, and then incubated at room temperature for 1 hour. After incubation plate was washed with PBS plus 0.025% Tween 20 in the Skan Washer 300. […] Following a one hour incubation at room temperature, plate was washed with PBS plus 0.025% Tween 20 in the Skan Washer 300. […] Plate incubated for 1 hour at room temperature was washed with PBS plus 0.025% Tween 20 in the Skan Washer 300. […] The absorbance was measured at 450 nm, background 540 nm for TMB using the Molecular Devices plate reader. Data was analyzed using the SOFTMAX PRO software package version 4.3 LS (Molecular Devices Corp.).

[7] = molecular target: T1, human IGF-1R(1-902)-His10; test: SPR, antibody over captured IGF-1R-10His
Description: All surface plasmon resonance (SPR) experiments were performed on a Biacore 3000 set to 25° C. using HBS-EP (Biacore, Cat. No. BR-1001-88) as the running buffer. A biotin-labeled anti-HisTag antibody (biotin-PENTA-His, Qiagen Cat. No. 34440) was immobilized to saturation on a Biacore SA chip (Cat. No. BR-1000-32) surface by injection at 500 nM in HBS-EP buffer. […] Subsequent to IGF-1R injections, flow rates were increased to 20 μL/min. A second, 130 μL injection of anti-IGF-1R antibody or Fab was performed to investigate interactions with the receptor. Each antibody and Fab was serially diluted from 64 nM to 0.5 nM to obtain concentration dependent kinetic binding curves. Each injection series was regenerated using 3×10 μL injections of 10 mM Acetate, pH 4.0, at 20 μL/min. Each curve was double referenced using (1) data obtained from a streptavidin surface devoid of IGF-1R and (2) data from a primary injection of IGF-1R followed by a secondary injection of HBS-EP buffer. The concentration series for each antibody and Fab was fit to the 1:1 binding model provided within the BiaEvaluation software of the manufacturer.
The rates at which the antibodies accumulate on the IGF-1R coated surface when applied at various concentrations as well as the rates at which they dissociated during applications of pure buffer were investigated by fitting the data to a 1:1 binding model. Approximate kinetic rate constants and equilibrium dissociation constant were calculated (Table 14).

human IGF-1R(1-903)-Fc [8] = molecular target: T5, human IGF-1R(1-903)-Fc; test: ELISA on hIGF-1R-Fc, competitor Zenon-labelled αIR3
human IGF-1R(1-903)-Fc [9] = molecular target: T5, human IGF-1R(1-903)-Fc; test: ELISA on hIGF-1R-Fc, competitor biotinylated M14-G11
[10] = molecular target: T6, human insulin receptor expressed in mammalian cells (UniProt P06213 28-1382, limits assumed); test: immunoprecipitation from IR CHO lysate, western blot with mouse anti-human IR
T6 construct: whole, on cells; Cells were solubilised with Triton X-100 before immunoprecipitation; also called INSR; IR
Description: Recombinant IGF-1R and insulin receptor (IR) were independently expressed in mammalian cells (3T3 or CHO). […] Antibody/antigen complexes were released from the beads by acid treatment, applied to Tris-Glycine SDS-PAGE gels and blotted to nitrocellulose membranes. Detection was performed using mouse anti-human IR (FIG. 24A) or mouse anti-human IGF-1R (FIG. 24B) and goat α-mouse IgG.

[11] = molecular target: T2, human IGF-1R expressed on cells; test: flow cytometry, MCF-7 cells
Description: The ability of Fabs to bind to the wild type IGF-1R was determined by flowcytometry using MCF-7 tumor cell line.
MCF-7 cells (Human Breast Adenocarcinoma from NCI) were split 24 hours prior to the setup of the assay to obtain 70% confluent monolayer. Routinely, MCF-7 cell line was maintained within 20 passages. Cells were lifted with cell dissociation buffer (Gibco catalog #13151-014), counted, washed and adjusted to 1×10⁶ cells/ml and one ml of cells were then added to each tube (12×75 mm tube Falcon catalog# 352054). Cells were pelleted and supernatant removed by centrifugation at 1200 rpm for 5 min and 100 μl of diluted antibodies were then added to the cell pellet. Purified Fabs were tested at a starting concentration of either 210 or 60 μg/ml with 1:3 dilutions in FACS buffer, down to 0.001 μg/ml. FACS buffer used throughout the assay was PBS (without Ca++/Mg++) containing 1% BSA (Sigma catalog# A-7906; Sigma-Aldrich Corp. (St. Louis, Mo., USA)) and 0.1% Sodium Azide (Sigma catalog #S2002). […] Samples were allowed to incubate on ice for 1 hour and 15 minutes then were washed with 2 ml FACS buffer and centrifuged at 1200 rpm for 5 minutes at 4° C. The supernatant was aspirated and 100 μl of the secondary detection antibody was added to each corresponding tube in FACS buffer. Samples were then incubated for 30 minutes on ice, in the dark. Cells were washed as described above, then, re-suspended in […] FACS buffer per tube/sample.
Cells were stained for live cell determination with Propidium Iodide staining solution (PI for dead cell exclusion; BD Pharmingen catalog# 51-66211E or 556463; use at 1:500 final in FACS buffer). Samples were run on the FACSCalibur instrument (Becton Dickinson) with 10,000 live events collected per sample.

human INSR(28-956)-His10 = molecular target: T7, human INSR(28-956)-His10 (human, UniProt P06213 28-956); test: ELISA, plate coated with rh-INSR
T7 construct: range 28-956; Bought (R&D Systems 1544-IR); also called rh-INSR; soluble insulin receptor
Description: ELISA assays were performed to determine specific binding of the Fab fragment antibodies to soluble IGF-1R over the insulin receptor. […] Color development was stopped by addition of 4NH₂SO₄ and optical density is measured at 450 nm using a Molecular Devices plate reader and binding curves are generated.

T4 sequence (I2CWY3 entry or part of it): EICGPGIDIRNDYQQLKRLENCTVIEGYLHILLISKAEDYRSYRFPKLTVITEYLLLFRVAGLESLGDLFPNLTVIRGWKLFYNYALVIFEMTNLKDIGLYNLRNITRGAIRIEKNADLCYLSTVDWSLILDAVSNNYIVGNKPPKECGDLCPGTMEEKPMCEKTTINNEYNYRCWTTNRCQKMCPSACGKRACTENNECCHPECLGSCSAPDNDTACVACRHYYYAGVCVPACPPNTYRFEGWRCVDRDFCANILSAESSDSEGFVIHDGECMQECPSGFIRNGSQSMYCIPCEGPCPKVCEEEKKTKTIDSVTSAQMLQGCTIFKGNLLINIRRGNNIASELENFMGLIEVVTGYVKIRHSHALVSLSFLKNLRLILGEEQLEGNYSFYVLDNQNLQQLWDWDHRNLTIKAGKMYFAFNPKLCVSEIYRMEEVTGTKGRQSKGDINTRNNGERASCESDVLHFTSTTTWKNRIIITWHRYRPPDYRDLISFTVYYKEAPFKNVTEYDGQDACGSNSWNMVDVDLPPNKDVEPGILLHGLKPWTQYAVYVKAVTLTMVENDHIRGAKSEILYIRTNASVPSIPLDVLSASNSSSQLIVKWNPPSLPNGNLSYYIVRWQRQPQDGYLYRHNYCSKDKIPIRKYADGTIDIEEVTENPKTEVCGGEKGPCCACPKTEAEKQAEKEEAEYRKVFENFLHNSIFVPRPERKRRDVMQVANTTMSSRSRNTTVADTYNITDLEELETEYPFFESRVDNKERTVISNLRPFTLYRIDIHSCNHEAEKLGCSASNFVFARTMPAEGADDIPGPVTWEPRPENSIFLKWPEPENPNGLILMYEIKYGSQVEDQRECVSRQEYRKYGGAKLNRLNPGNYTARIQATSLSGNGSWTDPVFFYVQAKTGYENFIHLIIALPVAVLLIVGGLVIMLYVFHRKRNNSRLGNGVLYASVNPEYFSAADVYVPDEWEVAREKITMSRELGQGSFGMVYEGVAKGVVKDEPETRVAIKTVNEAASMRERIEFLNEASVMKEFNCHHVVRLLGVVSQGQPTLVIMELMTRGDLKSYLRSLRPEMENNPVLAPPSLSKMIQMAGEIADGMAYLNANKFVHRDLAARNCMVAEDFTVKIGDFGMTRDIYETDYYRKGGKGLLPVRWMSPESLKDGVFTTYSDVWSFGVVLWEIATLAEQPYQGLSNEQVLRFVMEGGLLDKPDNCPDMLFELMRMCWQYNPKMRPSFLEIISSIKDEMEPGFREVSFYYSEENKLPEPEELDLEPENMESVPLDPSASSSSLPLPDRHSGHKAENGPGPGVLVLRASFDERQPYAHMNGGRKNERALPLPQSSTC
T3 sequence (Q60751 31-1373): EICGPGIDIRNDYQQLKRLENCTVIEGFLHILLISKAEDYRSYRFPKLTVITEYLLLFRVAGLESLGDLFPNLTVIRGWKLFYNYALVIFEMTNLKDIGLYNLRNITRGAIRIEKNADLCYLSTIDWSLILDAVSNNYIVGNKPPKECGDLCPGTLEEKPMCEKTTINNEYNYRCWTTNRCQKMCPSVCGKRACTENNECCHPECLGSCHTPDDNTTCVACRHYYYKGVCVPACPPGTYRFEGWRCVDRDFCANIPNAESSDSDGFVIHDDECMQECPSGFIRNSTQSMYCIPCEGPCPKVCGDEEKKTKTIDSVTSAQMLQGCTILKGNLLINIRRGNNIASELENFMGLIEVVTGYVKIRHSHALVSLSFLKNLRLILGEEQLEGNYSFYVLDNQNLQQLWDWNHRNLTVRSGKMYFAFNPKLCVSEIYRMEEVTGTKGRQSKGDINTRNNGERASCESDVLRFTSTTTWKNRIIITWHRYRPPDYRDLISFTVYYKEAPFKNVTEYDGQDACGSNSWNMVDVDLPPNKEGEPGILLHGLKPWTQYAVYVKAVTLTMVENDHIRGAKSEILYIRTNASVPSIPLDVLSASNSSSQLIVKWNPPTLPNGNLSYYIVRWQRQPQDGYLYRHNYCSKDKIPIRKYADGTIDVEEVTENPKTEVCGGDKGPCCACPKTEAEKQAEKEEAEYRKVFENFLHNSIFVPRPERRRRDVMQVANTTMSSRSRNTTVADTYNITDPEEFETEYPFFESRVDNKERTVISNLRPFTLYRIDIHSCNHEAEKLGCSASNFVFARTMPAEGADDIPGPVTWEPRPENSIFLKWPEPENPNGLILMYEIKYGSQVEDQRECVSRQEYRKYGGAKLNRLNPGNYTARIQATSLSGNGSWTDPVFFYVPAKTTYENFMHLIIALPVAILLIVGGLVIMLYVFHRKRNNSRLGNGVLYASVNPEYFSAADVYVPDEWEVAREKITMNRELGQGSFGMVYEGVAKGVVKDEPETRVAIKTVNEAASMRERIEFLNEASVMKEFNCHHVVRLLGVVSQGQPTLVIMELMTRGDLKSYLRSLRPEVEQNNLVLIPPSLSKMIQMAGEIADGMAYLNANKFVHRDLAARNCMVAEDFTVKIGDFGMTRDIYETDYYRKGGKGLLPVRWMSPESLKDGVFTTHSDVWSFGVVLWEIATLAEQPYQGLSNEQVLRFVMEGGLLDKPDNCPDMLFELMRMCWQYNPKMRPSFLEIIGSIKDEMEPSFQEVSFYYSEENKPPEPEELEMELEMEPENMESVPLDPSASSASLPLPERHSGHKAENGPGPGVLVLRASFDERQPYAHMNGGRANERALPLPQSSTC

Row | Binder | EC50 [1] [nM] | EC50 [2] [nM] | EC50 (read off the curve) (human IGF-1R(1-903)-Fc [6]) [nM] | other results
1 | B1 | 0.023 | 1.1 |  | 
2 | B2 | 0.075 | 2.06 |  | 
3 | B3 |  |  | ~0.06 | inhibition of IGF-1 and IGF-2 mediated IGF-1R receptor phosphorylation (EC50) [3]: < 1 nM; binding result [4]: binds; binding result [5]: binds
4 | B4 |  |  | ~0.06 | Kd [7]: 0.11 nM; koff [7]: 0.00011 s⁻¹; kon [7]: 1e+06 M⁻¹ s⁻¹; percent competition (relative to self-competition) (human IGF-1R(1-903)-Fc [8]): 50 to 70%; percent competition (relative to self-competition) (human IGF-1R(1-903)-Fc [9]): 90 to 100%; binding result [10]: no binding
5 | B5 |  |  | ~0.2 | 
6 | B6 |  |  |  | EC50 [11]: 25 nM; binding result (human INSR(28-956)-His10): no binding (tested: about 5000 nM)
7 | B7 | 0.016 | 0.391 |  | 
8 | B8 | 0.011 | 0.447 |  | 
